Each block holds one compound with its values, some of them ahead of it. Where no end group is shown, it is not given here.
How the values were obtained:
AKT [1] = target: T1, AKT (Homo sapiens, UniProt P31749); assay: Screen of PKAc peptide library for effect on catalytic activity of AKT; format: biochemical; settings: single peptide
T1 construct: purchased Upstate Biotechnology
Description: Unlike PKAc and protein kinase C (PKC) for which potent inhibitor peptides are readily available and widely used, inhibitors of AKT are generally lacking (Brazil, et al. (2004) supra). […] Moreover, optimal substrate motifs for AKT have been modified to design AKT inhibitors (Obata, et al. (2000) J. Biol. Chem. 275:36108-36115). Because the full-length PKAc protein inhibited the catalytic activity of AKT, a peptide library based on the human (GENBANK Accession No. NP_002721; SEQ ID NO:1) and bovine (GENBANK Accession No. CAA47627; SEQ ID NO:2) PKAc protein sequences was designed and synthesized. This library contained 96 overlapping peptides (Table 1), covering the full-length protein sequence of human and bovine PKAc from the N- to C-terminus. The library was extensively screened to identify fragments of PKAc that mediated the inhibitory effect of PKAc toward AKT.
These peptides included peptide 49 (SEQ ID NO:56), 53 (SEQ ID NO:60), 62 (SEQ ID NO:69), 63 (SEQ ID NO:70) and 64 (SEQ ID NO:71). Combinations of consecutive overlapping peptide fragments were also assayed for an effect on the catalytic activity of AKT. A significant inhibitory effect was also observed when peptides 25 through 36 were combined (i.e., SEQ ID NOs:32-43), peptides 37 through 48 were combined (i.e., SEQ ID NOs:44-55), peptides 49 through 60 were combined (i.e., SEQ ID NOs:56-67), and peptides 61 through 72 were combined (i.e., SEQ ID NOs:68-79).

AKT [2] = assay: AKT activity in cultured neurons treated with PKA inhibitor or activator; format: cell-based
Procedure: To evaluate the significance of the AKT-PKAc interaction, kinase inhibitors were employed. […] Thus, cultured neurons were treated with the selective PKA inhibitor, H-89, and the potent PKA activator, forskolin, and AKT activity was analyzed.

N2a cells [3] = assay: Trypan blue staining, live and dead cell count; format: cell-based
Description: Therefore, in addition to capturing live images, cells were stained with trypan blue at different time intervals following treatment with ZaTa and counted by a light microscope using a hemocytometer.

N2a cells [4] = assay: MTT cell proliferation assay; format: cell-based; settings: 10 μM, 48-hour treatment (FIG. 3, series 1)
Procedure: In histogram series 2, treatments were removed after 24 hours and cells were incubated for another 24 hours without treatment. […] Mitochondrial activity (reflecting cellular growth and viability) in the presence of ZaTa and ZaTa variants (ZaTa T10D, ZaTa T8D, ZaTa T14R, and ZaTa Y17T) was evaluated by measuring the optical density (“OD”) at 490 nm on a plate reader. ZaTa T10D refers to a ZaTa polypeptide variant in which the Threonine (T) at position 10 of SEQ ID NO: 60 is substituted by an Aspartic Acid (D). ZaTa T8D refers to a ZaTa polypeptide variant in which the Threonine (T) at position 8 of SEQ ID NO: 60 is substituted by an Aspartic Acid (D). ZaTa T14R refers to a ZaTa polypeptide variant in which the Threonine (T) at position 14 of SEQ ID NO: 60 is substituted by an Arginine (R). ZaTa Y17T refers to a ZaTa polypeptide variant in which the Tyrosine (Y) at position 17 of SEQ ID NO: 60 is substituted by an Threonine (T).
AKT affects a network that positively regulates G1/S cell cycle progression through several mechanisms that involve the expression and subcellular localization of the CDK inhibitor p27^Kip1 (Blain and Massague (2002) Nat. Med. 8:1076-1078; Liang, et al. (2002) supra; Shin, et al. (2002) supra; Viglietto, et al. (2002) supra). Based on these studies, the effect of ZaTa peptide on cell proliferation was assessed. […] Capturing live images of cultured N2a cells in the presence of different concentrations of the ZaTa peptide confirmed an obvious reduction in the number of dividing cells.
Based on the importance of the C-terminal arm of ZaTa for its inhibitory action on AKT, it was determined whether the free hydroxyl groups on residues Thr-8, Thr-10 (equivalent to Thr-197 in full-length PKAc), Thr-14 and Tyr-17 were important for the biological activity of this peptide. Mutants of ZaTa peptide were synthesized by replacing Thr-8 or Thr-10 residues with Asp (ZaTa^T8D and ZaTa^T10D, respectively) as an amino acid with a negatively charged side chain. Mutants of ZaTa with the hydrophilic positively charged amino acid Arg at either position Thr-14 or Tyr-17 (ZaTa^T14R and ZaTa^Y17R, respectively) were also synthesized. […] The inhibitory effect of ZaTa peptide on cell proliferation was reversible, to a large extent, after the removal of ZaTa treatment (FIG. 3, histogram series 2).
Cells (5×10^3) were incubated in 96-well plates in the presence of different concentrations of the ZaTa peptide, control peptide or DMSO as vehicle. Media was removed at different time intervals and replaced with media containing MTT (5 mg/mL), and incubated for one hour at 37° C. […] The activity of the mitochondria, reflecting cellular growth and viability, was evaluated by measuring the optical density at 490 nm on a plate reader.

olfactory bulb cells = assay: In vivo TUNEL in olfactory bulb after repeated intranasal delivery; parameters: species or system C57BL/6 mice; settings: repeated intranasal treatment for three days
Description: To confirm the apoptotic inducing effect of ZaTa in vivo, ZaTa was delivered to the mouse brain via the nasal cavity, a minimally invasive procedure compared to the stereotactic surgery. Intranasal delivery of compounds into the brain is an efficient and effective way for local delivery of compounds, without the need for passing the blood brain barriers, the major obstacle for studying the effect of different inhibitors/activators in CNS (Vyas, et al. (2005) Curr. Drug Deliv. 2:165-175; Hrafnkelsdottir, et al. (2005) Biol. Pharm. Bull. 28:1038-1042). […] This was visualized by double labeling of the brain sections with fluorescent TUNEL and a nuclear marker.
Depending on the intended use, a pharmaceutical composition of the invention can be administered by any suitable means, including parenteral injection (such as intraperitoneal, subcutaneous, intratumoral or intramuscular injection), orally or by topical application (e.g., transdermal or via a mucosal surface). By pharmaceutically acceptable formulation is meant, a composition or formulation that allows for the effective distribution of the nucleic acid molecules of the instant invention in the physical location most suitable for their desired activity. […]

AKT1 = target: T2, AKT1 (Homo sapiens, UniProt P31749); assay: AKT1 radioactive in vitro kinase assay (32P incorporation into Ser-21 GSK-3 substrate peptide); format: biochemical; settings: compared with ZaTa
T2 construct: purchased Upstate Biotechnology
T2 sequence (P31749 whole entry): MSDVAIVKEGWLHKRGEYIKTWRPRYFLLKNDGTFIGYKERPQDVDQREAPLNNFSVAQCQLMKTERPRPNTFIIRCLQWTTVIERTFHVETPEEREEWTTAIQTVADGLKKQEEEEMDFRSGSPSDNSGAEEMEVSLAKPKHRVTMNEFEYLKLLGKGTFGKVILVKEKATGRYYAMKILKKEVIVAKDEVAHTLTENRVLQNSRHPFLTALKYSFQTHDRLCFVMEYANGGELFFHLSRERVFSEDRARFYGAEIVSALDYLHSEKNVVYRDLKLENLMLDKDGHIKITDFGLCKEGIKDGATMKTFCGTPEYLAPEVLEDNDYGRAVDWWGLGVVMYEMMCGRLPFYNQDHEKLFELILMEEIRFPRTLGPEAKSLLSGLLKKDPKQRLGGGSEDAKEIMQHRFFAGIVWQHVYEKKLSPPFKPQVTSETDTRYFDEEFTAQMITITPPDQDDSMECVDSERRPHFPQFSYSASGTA
Procedure: AKT1 catalytic activity was determined by measuring the incorporation of −^32P into Ser-21 glycogen synthase kinase 3[…] (GSK-3[…]) substrate peptide. Histogram bars represent the number of −^32P counts per minute (CPM). Reactions were carried out in the presence of different concentrations of the ZaTa peptide (SEQ ID NO:60), as well as a control peptide (SEQ ID NO:59) which shares 11 out of 17 amino acids in common with the N-terminus of the ZaTa peptide.
Of particular interest with regard to inhibitory activity toward AKT was peptide […](SEQ ID NO:60) which flanked the Thr-197 phosphorylation site of PKAc. […] Furthermore, the inhibitory effect of ZaTa peptide was compared with an adjacent peptide ([…] SEQ ID NO:59), a peptide that overlaps with the 11 N-terminal amino acid residues of the ZaTa peptide and carries the Thr-197 phosphorylation site. In this assay, the level of incorporation of −^32 P into Ser-21 GSK-3[…] substrate peptide was used as the measure of AKT1 in vitro catalytic activity.
For non-radioactive kinase assays, typically 25 ng of active AKT1 or PKAc (Upstate Biotechnology) was used in a kinase assay reaction buffer (20 mM MOPS, pH 7.2, 25 mM […]-glycerophosphate, 5 mM EGTA, 1 mM Na3VO4, 1 mM dithiothreitol, 75 mM MgCl2, and 0.5 mM ATP) in the presence of either 1 μL of Ser-9 GSK-3 GST fusion protein (Cell Signaling), or recombinant DARPP-32 (10 μg). For the radioactive kinase assays, typically 25 ng of kinase was added to the kinase assays reaction buffer (20 mM MOPS, pH 7.2, 25 mM […]-glycerophosphate, 5 mM EGTA, 1 mM Na3VO4, 1 mM dithiothreitol) containing 30 μM of dephosphorylated Ser-21 GSK-3 substrate peptide (Upstate Biotechnology) in the presence of different concentrations of inhibitor. Reactions were initiated by adding [−^32P] ATP (10 μCi/reaction) which was diluted in the reaction buffer, plus 500 μM cold ATP and 75 mM MgCl2. Kinase reactions were incubated 30° C. for 10-20 minutes. A 5 μL aliquot of the reaction was transferred to phosphocellulose paper, washed for 30 minutes with dH2O, and CPM of samples read in scintillation counter.

[5] = counted at time points from 12 to 72 hours

T1 sequence (P31749 whole entry): as above

Compound: W-A-L-G-V-L-I-Y-E-M-A-A-G-Y (WALGVLIYEMAAGY; Peptide_SEQ ID NO:69) [Peptide 62]
- inhibitory effect toward AKT, individual library peptides (AKT [1]): significant inhibitory effects

Compound: D-Q-Q-G-Y-I-Q-V-T-D-F-G-F-A-K (DQQGYIQVTDFGFAK; Peptide_SEQ ID NO:56) [Peptide 49]
- inhibitory effect toward AKT, individual library peptides (AKT [1]): significant inhibitory effects

Compound: O=S(=O)(NCCNC/C=C/c1ccc(Br)cc1)c1cccc2cnccc12 [Peptide H-89]
- activity of AKT, phosphorylation level at Thr-308 and Ser-473 (AKT [2]): dose-dependent increase

Compound: AKRVKGRTWTLCGRPEY [ZaTa^T14R]
- increase in the number of dead cells (N2a cells [3]; only after 72 hours): significant increase in the number of dead cells

Compound: AKRVKGRDWTLCGTPEY [ZaTa^T8D]
- increase in the number of dead cells (N2a cells [3]; [5]): not seen

Compound: AKRVKGRTWDLCGTPEY [ZaTa^T10D]
- increase in the number of dead cells (N2a cells [3]; [5]): not seen

Compound: ZaTa^Y17R: ZaTa mutant with Arg at position Tyr-17 (AKRVKGRTWTLCGTPER; Peptide_SEQ ID NO:60)
- effect of mutation on inhibition of cell proliferation relative to ZaTa (N2a cells [4]): considerably augmented ZaTa activity
- increase in the number of dead cells (N2a cells [3]; only after 72 hours): significant increase in the number of dead cells

Continued, in another order:

- inhibitory effect toward AKT, individual library peptides (AKT [1]): significant inhibitory effects
Compound: G-V-L-I-Y-E-M-A-A-G-Y-P-P-F-F (GVLIYEMAAGYPPFF; Peptide_SEQ ID NO:70) [Peptide 63]

- inhibitory effect toward AKT, individual library peptides (AKT [1]): significant inhibitory effects
Compound: Y-E-M-A-A-G-Y-P-P-F-F-A (YEMAAGYPPFFA; Peptide_SEQ ID NO:71) [Peptide 64]

- inhibition of AKT1 catalytic activity (AKT1): not able to inhibit AKT1
Compound: GFAKRVKGRTWTL [control peptide, peptide overlapping the 11 N-terminal residues of ZaTa, reference compound]
- number of apoptotic cells in olfactory bulb (olfactory bulb cells): no change in the number of apoptotic cells

Source: patent publication US8541670B2, “Compositions and methods for inhibiting tumor cell growth” (priority 2007, dated 2013)
